Ends that are not written are not given here.
Key:
[1] = target: NS3aH1-VPR, cells treated with grazoprevir (hepatitis C virus); test: cell-based or functional assay
[2] = target: NS3a (active), Avi-His6-NS3a catalytically active; test: fluorescence polarization; FB50; settings: chains peptide; modification not given
[3] = target: NS3a (active), Avi-His6-NS3a catalytically active; test: fluorescence polarization; FB50; settings: chains peptide; modification not given; remark: listed apart in the source
[4] = target: NS3aH1-VPR, cells treated with danoprevir (hepatitis C virus); test: cell-based or functional assay

B1: NLS-MCP-GNCR1 (from NLS-MCP-GNCR1-P2a-BFP) (designed binder)
chain: MPKKKRKVGSMASNFTQFVLVDNGGTGDVTVAPSNFANGIAEWISSNSRSQAYKVTCSVRQSSAQNRKYTIKVEVPKGAWRSYLNMELTIPIFATNSDCELIVKAMQGLLKDGNPIPSAIAANSGIYGSGGSGDIEKLCKKAEEEAKEAQEKADELRQRHPDSQAAEDAEDLANLAVAAVLTACLLAQEHPNADIAKLCIKAASEAAEAASKAAELAQRHPDSQAARDAIKLASQAARAVILAIMLAAENPNADIAKLCIKAASEAAEAASKAAELAQRHPDSQAARDAIKLASQAAEAVERAIWLAAENPNADIAKKCIKAASEAAEEASKAAEEAQRHPDSQKARDEIKEASQKAEEVKERCKSEQKLISEEDLGSGATNFSLLKQAGDVEENPG
EC50 of the grazoprevir titration, CXCR4 immunofluorescence [1]: 0.16 nM

B2: FAM-ANR (peptide)
chain: GSGSGELDELVYLLDGPGYDPIHSD
modifications: not fully specified (N-terminus)
EC50 [2]: 30 nM | EC50 [3]: 40 nM

B3: NLS-PCP-DNCR2 (from NLS-PCP-DNCR2-P2a-BFP) (designed binder)
chain: MPKKKRKVGSMSKTIVLSVGEATRTLTEIQSTADRQIFEEKVGPLVGRLRLTASLRQNGAKTAYRVNLKLDQADVVDSGLPKVRYTQVWSHDVTIVANSTEASRKSLYDLTKSLVATSQVEDLVVNLVPLGRGSGSGSSDEEEARELIERAKEAAERAQEAAERTGDPRVRELARELKRLAQEAAEEVKRDPSSSDVNEALKLIVEAIEAAVDALEAAERTGDPEVRELARELVRLAVEAAEEVQRNPSSSDVNEALHSIVYAIEAAIFALEAAERTGDPEVRELARELVRLAVEAAEEVQRNPSSRNVEHALMRIVLAIYLAEENLREAEESGDPEKREKARERVREAVERAEEVQRDPSGWLNHEQKLISEEDLGSGATNFSLLKQAGDVEENPG
EC50 of the danoprevir titration, GFP fluorescence [4]: 0.79 nM
